These results are taken from a protein production outcome set (Wang et al. 2014).
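Also: failed if final PepcDB status was selected cloned or expressed and not failed if soluble or beyond.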

The data set can be described thus: label from the status in PepcDB records.
For “KRIQYSVITILVLLIAVILIYMFSPLSKIAHVNINGNNHVSTSKINKVLGVKNDSRMYTFSKKNAINDLEEDPLIKSVEIHKQLPNTLNVDITENEIIALVKYKGKYLPLLENGKLLKGSNDVKINDAPVMDGFKGTKEDDMIKALSEMTPEVRRYIAEVTYAPSKNKQSRIELFTTDGLQVIGDISTISKKMKYYPQMSQSLSRDSSGKLKTRGYIDLSVGA”, the protein production result is given as “failed”.
In the case of “KRREIPLKVLVKAVLFACMLMRKTMASRVRVTILFATETGKSEALAWDLGALFSCAFNPKVVCMDKY”, the protein production entry is “failed”.
In the case of “KRRIRQLELQVRMLEADKERLERELSRLRSEMSRLRQPPAFAGSVIEVLDDDRAIVQNYNGPRFVVRIAPWIDKSKLRPGTRVALDQRTMAIIEILPASKDPAVLGFEVVERPN”, the protein production result is listed as “not failed”.
On to “KRVFGFVSAKGGDGGSCIAANFAFALSQEPDIHVLAVDISLPFGDLDMYLSGNTHSQDLADISNASDRLDKSLLDTMVQHISPSLDLIPSPATFEKIVNIEPERVSDLIHIAASFYDYIIVDFGASIDHVGVWVLEHLDELCIVTTPSLQSLRRAGQLLKLCKEFEKPISRIEIILNRADTNSRITSDEIEKVIGRPISKRIPQDEDAMQESLLSGQSVLKVAPKSQLSKTIVDWALHLNGVSRPNKRSIWERLKIK”, for which the protein production entry is given as “not failed”.
Consider “KSPGWMKHLDQEQAVHSESETYGISSWVYSARLPFHPQRFQHFLAHPWTNGTLLRCKGYIWNAKCYQDIGMLVQTGGQFEWEIVGRWWNFINQSDWPQDHYRRDSIFEKWDERTGDCRQEIVFIGQNIDWNTLKHQLDDCLLTLQEIEDGPEAWLNY”, for which the protein production entry is listed as “failed”.
With “KVILYARVSSSTQKDELVNQVKYLEEQVKEYDLVITDIGSGLNMKRKGFLKLLRMILNNEVSRVVVAYPDRLVRVGFEILEEVCKAHNCEIVVLNQEDKEEELVEDLMSALVSFSGKLYGMRSHEYEKVKKCAEELKNW”, the protein production result was “not failed”.
Take “KVKELNLHELCAVCLEDFKPRDELGICPCKHAFHRKCLIKWLEVRKVCPLCNMPVLQLAQL”: the protein production entry is reported as “not failed”.
The entry for “KVSVNDIMVPRNEIVGIDINDDWKSIVRQLTHSPHGRIVLYRDSLDDAISMLRVREAYRLMTEKKEFTKEIMLRAADEIYFVPEGTPLSTQLVKFQRNKKKVGLVVDEYGDIQGLVTVEDILEEIVGDFT” is “not failed”; for “KYTQNNFITGVRAINEFCLKSSDLEQLRKIRRRSPHEDTESFTVYLRSDVEAKSLEVWGSPEALAREKKLRKEAEIEYRERLFRNQKILREYRD” it is “not failed”; for “LDAILIADDEGCYVDVNAAACELFGVSREELLASTIADFAAPEFNFTQAWQQFREQEQMSGEFQLHRPNGTVRATEFAAVANFIPHRHLSIIRDVSDRQQAKANLQNSEQRLQLALSASS” it is “failed”.
Regarding “LEKAGDSVEITNEEAVIQYVNPAFENITLYNAREAMNKTVASLLRSPVEDAQLFEEINQTLKSGNTWKGQIRSRKKDGSYWVAQTIIVPVMDDELGRITQHIAIKQDIT”, the protein production entry is “failed”.
Turning to “LESKIVDISTRFINTPIDDLDREIEAALQAIGAFVDADRSYVFLFDDEAATMSNTHEWRTEATASTQSRLQNIPYAETPWFMARMRRREGPLRVPRLEDLPPDAAGLRQRLEAGNVQSLLVLPMLNDQDLIGFVGFDAVRQQRDWDADTVMLLRVLSDAISNALQRKTAEKEMLAAKEEAEDANRMKS”, the protein production entry was “failed”.
For “LFTHRPIHTHTVTFSGGGENSAMYASIGFYDDRGWTLADHVKRITANIKNSFYWNEDKIKATISAQGNLRNQNSPGTIPQRRNTVIGTFERDFDINPFSYALSTSRTLRPHNADGKREFYRNNWAPFNILNEYENNYLKTEVLDLKLQGELSYRLNDHIEVKGLAMVRHAVTKSSHFIAEASNVVQAFRANETPYVARENIYLLKNKDDPMQLPGVALTHGGIFNKTETSLRSYLGRLALDYNRQLSEHNIRAFGFTEIRYADRSMNPFQGYGIQYDRGNQVFSNPLIFEKLANEGDTYFSLTERYERGVTLSGSATYGYAEKYIFNGVFNYEGANTAGKYSRSRWLPTWNIGAKWNLDQEKFMRKHTTISRLALRTSYGLTAKMNEQAVNSTTVFKHVMVNRTLLKDRENALRILHLENRDLTWEKMYELNFGLELGLFGNRISATFDVYQRNSFDLIDLIRTSGVGGQYYKYANFGDMRTRGVELAIQTQNILTDKFSWSTTVT”, the protein production result is “failed”.
The entry for “LGGVAPEQVAYAVEQAGKRLQERDNAGVKVRPARLTDLDALEGMVAYWAGLGENLPRNRNELVRDIGSFAVAEHHGEVTGCASLYVYDSGLAEIRSLGVEAGWQSQGQGKAIVQHLVEKAREMAIKKVFVLTRVPEFFMKQDFIPTSRSLLPEKVLKDCDQCPRQH” is “failed”; for “LGIAINEMIRMLRAARDEDDRRNWLKDGYGQVSAALTGDLTTEQLADAAIGLIGRYLDAGRGVFYLYRDAEQRLDLIGSYMYTERNNLGASFALGEGAVGQVARERKPIILEVSGDDAAPIVTGTMLALPRYTYTYPLLHEKELVGVIELSSFDHFDERKLEFLANVGGMLASFL” it is “failed”.
The value for “LGNAMNIPAPIRIEAFDNSNIMGTNPVSAMVVFIDGRPAKNEYRKYKIKTVQGPDDYASMREVIYRRYSRVLKEGLPFPDLILIDGGKGQVDVAKDVLANQLGVDIPVAGLAKNDKHKTSELLFGPNLEVVPLERNSQEFFLLQRIQDEVHRFAI” was “not failed”; that for “LKCSTVVCVICLEKPKYRCPACRVPYCSVVCFRKHKEQCNPET” was “not failed”.
On to “LKLEVVEDKQYGRLANRIENVVSQERTRKKFESLVSDSPDGIVHLTTNGTILSVNPSMAGRLGADPDTLVGQQLSAVMDSEAANQRLEAGKSAVENGTATRSEDAVGGRHYHNQYIPVDSHR”, for which the protein production result is reported as “failed”.
The entry for “LKYILETKLEEERNHLEELLEKVEEDYEGINYDEVLEALKLFKDNYELPKSKIKRKIRIFLIKENILFLNPQKGTLKPQSYLVWNAIKRML” is “not failed”; for “LLLTRPDEECAALAASLGEAGVHSSSLPLLAIDPLEETPEQRTLMLDLDRYCAVVVVSKPAARLGLERLDRYWPQPPQQTWCSVGAATAAILEAYGLDVTYPEQGDDSEALLALPAFQDSLRVHDPKVLIMRGEGGREFLAERLRGQGVQVDYLPLYRRRAPDYPAGELLARVRAERLNGLVVSSGQGLQNLYQLAAADWPEIGRLPLFVPSPRVAEMARELGAQRVIDCRGASAPALLAALTSAA” it is “failed”.
As for “LPDQRTVLYVHGGAWFQDPLENHFEYLDLLVDALDARVIMPVYPKIPHRDYRTTFELLTKIYKRLLTKIDEPENLVIIGDSAGGQIALAFAQMLKKEQLSQPGHIVLISPVLDATFKNPEARKYEKEDPMLGIDGSKYLVELWAGDAPLDDYKMSPMNGDLEGLGHITLTVGTKETLYPDAVKFSHMLNDKGIKHQFIPGYNLFHIYPLFPIPERQRFLEQLKKIIVTKEL”, the protein production result is “not failed”.
For “LPIIVKWGGQEYSVTTLSKDDTVLDLKQFLKTLTGVLPERQKLLGLKVKGKPAENDVKLGALKLKPNTKIMMMGTRE”, the protein production entry was “not failed”.
The value for “LPLTDALRKALAEAPKHTANIARKRHILFIGKLMRDQDQEAILVLLDQLDASTRQYNERFHNLERWRDRLIAGDDADLEKFVIEYPDADRQQLRSLIRQAQHEVARNKP” was “failed”; that for “LPSFRHKVFALVLVGVFVGLGAYLVYMSKAYSYLSDDPRVCINCHVMGPYYATWQHSSHAMRATCNDCHVPHNSIFSKYYFKASDGLRHSYVFTMRNEPQRMQAISASQAVIYDNCVRCHAQLNQEFVRTGMLTRADIRTAEEKACWDCHRDVPHGGKNS” was “failed”; that for “LQASCSDDQEHRLGSLDFYTGVFALEKSRIAEISNRATLELQKMATSGEPMWLRSVETGREILNYDEYLKEFPQAQASSFPGRKTIEASRDAGIVFMDAHKLAQSFMDVGQWKETFACLISKAATVDVIRQGEGPSRIDGAIQLMFGEMQLLTPVVPTREVYFVRSCRQLSPEKWAIVDVSVSVEDSNTEKEASLLKCRKLPSGCIIEDTSNGHSKVTWVEHLDVSASTVQPLFRSLVNTGLAFGARHWVATLQLHCERLVFFMATNVPTKDSLGVTTLAGRKSVLKMAQRMTQSFYRAIAASSYHQWTKITTKTGQDMRVSSRKNV” was “not failed”.
The value for “LRELDWFARRGLKEPNLAELLDLVALGSVADVVPLDANNRILVHQGLARIRAGRARPGLRALLEVAGRPPVRITSTDLGFILGPRLNAAGRLDDMSLGIECLLCDDEALARDMAVQLDQLNQDRKAIEQGMQREALAQLKELSLEQLPFGLCLFDADWHQGVIGILASRLKERYHRPTIAFADAGDGSLKGSARSIPGFHIRDALDAVAARHPGLISKFGGHAMAAGLSLPQENFGAFSAAFDAEVRRQLAEEDLAGRLLSDGQLSIQEFHLELARALRQAGPWGQHFPEPMFHGVFQLVQQRIVGERHLKLVLKSECGSLQLDGIAFNIDREQWPNPTVRWAELAYKLDVNEFRGQESVQLMIVHMAPR” was “failed”.
The entry for “LRKSEERWQLAIVGTDEAIWDWDILTNHTYRSDRWFEMLGYERHEMSTFDDEWSIRIHPDDYNRVMAAQAAYLRREVPVYYTEYRLRCKDGNYKWFRSRAKGVWDEQGNPIRLVGSLGDITGRKSIELD” is “not failed”.
On to “LRQQRLIWVVLALSCVIVISLLMLWRYTRFRSEAEAALIAETGFRRAMENSMSTGMRVLDMEGRIAYVNPAFCRMIGWNEADLIGRSPPFPYWVPGRHDQHQHTLEVLTSGKTPSSGLEVEAQRRDGSRFTARMYVSPLLDPNGDQIGWMTSMTDIT”, for which the protein production result is reported as “failed”.
Regarding “LRVFSSDGKLIAEFGEMRRTPIRFAEIPPNFINALLSAEDDNFANHYGVDPSSLMRAATQLVKSGHIQSGGSTITMQVAKNFFLTSERSFSRKTTEILLALQIERQLTKDEILELYVNKIYLGNRAYGIEAAAQVYYGKSIRDVSLAQMAMIAGLPKAPSRFNPLANA”, the protein production result is “failed”.
The value for “LSQNTLAENIYNIIISDISRKWALKDISDSLYMSCSTLKRKLKQEHTSFSEVYLNARMNKATKLLRNSEYNITRVAYMCGYDSASYFTCVFKKHFKTTPSEFLAFLSSSRHQ” was “failed”.
For the sequence “LTRSNISYFSIGSGTPIIFLHGLSLDKQSTCLFFEPLSNVGQYQRIYLDLPGMGNSDPISPSTSDNVLETLIEAIEEIIGARRFILYGHSYGGYLAQAIAFHLKDQTLGVFLTCPVITADHSKRLTGKHINILEEDINPVENKEYFADFLSMNVIINNQAWHDYQNLIIPGLQKEDKTFIDQLQNNYSFTFEEKLKNINYQFPFKIMVGRNDQVVGYQEQLKLINHNENGEIVLLNRTGHNLMIDQREAVGFHFDLFLDELNSN”, the protein production result is given as “failed”.
“LVEDFERELGRMLSPFELEDLQKTVSDDKTDPDLVRSALREAVFNGKTNWNYIQAILRNWRHEGISTLRQVEE”: the protein production entry is “not failed”.
As to “LVTISSTSAASLPTMPPSGYDQVRNGVPRGQVVNISYFSTATNSTRPARVYLPPGYSKDKKYSVLYLLHGIGGSENDWFEGGGRANVIADNLIAEGKIKPLIIVTPNTNAAGPGIADGYENFTKDLLNSLIPYIESNYSVYTDREHRAIAGLSMGGGQSFNIGLTNLDKFAYIGPISAAPNTYPNERLFPDGGKAAREKLKLLFIACGTNDSLIGFGQRVHEYCVANNINHVYWLIQGGGHDFNVWKPGLWNFLQMADEAGLTRDGNT”, the protein production entry was “not failed”.
